Laboratory results taken from patent US20220175977A1 (SORICIMED BIOPHARMA, published 2022).
Where no end group is shown, it is not given here.

B1: SorC27-cy5.5 (peptide)
peptide: EGKLSSNDTEGGLC(Cy5.5)KEFLHPSKVDLPR
notes: also called SorC27-Cy5.5 compound; fluorescently labeled SorC27

What was measured:
[1] = molecular target: T1, TRPV6 (endogenous, in human cancer cell lines, tumour tissue and plasma) (human, UniProt Q9H1D0 1-765); assay: fluorescence microscopy, SKOV-3 cells, not transfected (FIG. 9 A1-A3)
T1 construct: whole, on cells; also called Transient Receptor Potential Vanilloid 6; TRPV6 channel
T1 sequence (looked up): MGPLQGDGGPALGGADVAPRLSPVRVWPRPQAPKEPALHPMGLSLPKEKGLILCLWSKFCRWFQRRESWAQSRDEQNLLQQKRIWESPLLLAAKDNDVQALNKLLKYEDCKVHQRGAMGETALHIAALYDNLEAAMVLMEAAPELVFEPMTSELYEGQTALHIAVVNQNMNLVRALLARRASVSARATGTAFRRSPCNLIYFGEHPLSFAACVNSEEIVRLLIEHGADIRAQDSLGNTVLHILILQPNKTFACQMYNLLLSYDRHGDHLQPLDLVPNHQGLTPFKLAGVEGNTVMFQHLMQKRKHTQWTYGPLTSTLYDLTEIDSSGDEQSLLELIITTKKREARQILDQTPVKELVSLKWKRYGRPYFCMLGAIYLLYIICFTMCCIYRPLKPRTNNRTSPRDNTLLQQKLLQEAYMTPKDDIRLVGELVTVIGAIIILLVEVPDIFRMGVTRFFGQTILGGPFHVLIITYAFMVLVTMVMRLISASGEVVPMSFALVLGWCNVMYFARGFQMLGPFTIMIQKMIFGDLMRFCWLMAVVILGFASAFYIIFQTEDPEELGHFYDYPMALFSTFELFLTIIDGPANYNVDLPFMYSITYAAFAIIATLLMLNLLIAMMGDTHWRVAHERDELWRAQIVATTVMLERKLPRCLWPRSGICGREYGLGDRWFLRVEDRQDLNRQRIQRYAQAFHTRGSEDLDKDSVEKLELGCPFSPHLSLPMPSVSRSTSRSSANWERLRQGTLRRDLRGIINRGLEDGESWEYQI

[2] = molecular target: T1, TRPV6 (endogenous, in human cancer cell …); assay: LNCaP model; method not described

Binder | binding result [1] | Kd [2] [nM]
B1 | binds | 
KEFLHPSKVDLPR [SorC13] |  | 100
EGKLSSNDTEGGLCKEFLHPSKVDLPR [SorC27] |  | 140
